From the supplement of paper PMC10567573

B1: VPS39 (parent)
chain: ITEEKVCMVCKKKIGNSAFARYPN

Variants of: B1
Test: protein stability index of a GFP-peptide fusion (GPS, HEK-293T) (PSI 1-6); higher = more stable
Conditions: c terminus: a fixed tail appended
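Also: lentivirally expressed fusions sorted by FACS into six bins by GFP to DsRed ratio, PSI derived from sequencing read proportions per bin multiplied by bin number.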

Variant	protein stability index
ITEEKVCMVCKKDIGNSAFARYPN	2.73
ITEEKVCMVCKKYIGNSAFARYPN	2.11
ITEEKVCMVCKKIIGNSAFARYPN	2.02
ITEEKVCMVCKKPIGNSAFARYPN	2.27
ITEEKVCMVCKKHIGNSAFARYPN	2.01
ITEEKVCMVCKKQIGNSAFARYPN	2.6
ITEEKVCMVCKKRIGNSAFARYPN	2.29
ITEEKVIMVCKKKIGNSAFARYPN	2.2
ITEEKVRMVCKKKIGNSAFARYPN	2.54
ITEEKVYMVCKKKIGNSAFARYPN	2.53
ITEEKVTMVCKKKIGNSAFARYPN	3.18
ITEEKVLMVCKKKIGNSAFARYPN	2.77
ITEEKVQMVCKKKIGNSAFARYPN	3.31
ITEEKVFMVCKKKIGNSAFARYPN	2.78
ITEEKVWMVCKKKIGNSAFARYPN	2.02
ITEEKVSMVCKKKIGNSAFARYPN	2.98
ITEEKVCMVCKKKHGNSAFARYPN	4.23
ITEEKVCMVCKKKAGNSAFARYPN	2.56
ITEEKVCMVCKKKDGNSAFARYPN	3.48
ITEEKVCMVCKKKVGNSAFARYPN	1.79
ITEEKVCMVCKKKSGNSAFARYPN	3.36
ITEEKVCMVCKKKGGNSAFARYPN	2.3
ITEEKVCMVCKKKMGNSAFARYPN	3
ITEEKVCMVCKKKKGNSAFARYPN	2.49

Variant	protein stability index
ITEEKVCMVCKKKEGNSAFARYPN	2.85
ITEEKVCMVCKKKRGNSAFARYPN	2.67
IIEEKVCMVCKKKIGNSAFARYPN	2.43
IYEEKVCMVCKKKIGNSAFARYPN	2.34
ICEEKVCMVCKKKIGNSAFARYPN	2.32
IGEEKVCMVCKKKIGNSAFARYPN	2.15
IEEEKVCMVCKKKIGNSAFARYPN	2.72
IQEEKVCMVCKKKIGNSAFARYPN	3.19
IDEEKVCMVCKKKIGNSAFARYPN	2.92
IHEEKVCMVCKKKIGNSAFARYPN	3.16
IFEEKVCMVCKKKIGNSAFARYPN	2.9
ITEEKVCMVIKKKIGNSAFARYPN	2.45
ITEEKVCMVDKKKIGNSAFARYPN	3.67
ITEEKVCMVMKKKIGNSAFARYPN	2.94
ITEEKVCMVHKKKIGNSAFARYPN	3.32
ITEEKVCMVNKKKIGNSAFARYPN	4.14
ITEEKVCMVYKKKIGNSAFARYPN	2.64
ITEEKVCMVGKKKIGNSAFARYPN	4.21
ITEEKVCMVWKKKIGNSAFARYPN	2.59
ITEEKVCMVPKKKIGNSAFARYPN	3.97
ITEEKVCMVSKKKIGNSAFARYPN	4.14
ITEEKVCFVCKKKIGNSAFARYPN	3.02
ITEEKVCNVCKKKIGNSAFARYPN	2.92
ITEEKVCTVCKKKIGNSAFARYPN	2.43

Variant	protein stability index
ITEEKVCEVCKKKIGNSAFARYPN	2.85
ITEEKVCKVCKKKIGNSAFARYPN	3.11
ITEEKVCCVCKKKIGNSAFARYPN	2.44
ITEEKVCDVCKKKIGNSAFARYPN	2.95
ITEEKVCMVCKKKIGNSAFARWPN	1.63
ITEEKVCMVCKKKIGNSAFARQPN	2.77
ITEEKVCMVCKKKIGNSAFARLPN	2.22
ITEEKVCMVCKKKIGNSAFARCPN	2.98
ITEEKVCMVCKKKIGNSAFARDPN	3.12
ITEEKVCMVCKKKIGNSAFARTPN	2.95
ITEEKVCMVCKKKIGNSAFARVPN	2.38
ITEEKVCMVCKKKIGNSAFARAPN	2.57
ITEEKVCMVCKKKIGNSAFARIPN	2.39
ITEEKVCMVCKKKIGNSAFARPPN	2.65
ITEEKVCMVCKKKIGNSAAARYPN	3.58
ITEEKVCMVCKKKIGNSADARYPN	4.58
ITEEKVCMVCKKKIGNSAIARYPN	2.82
ITEEKVCMVCKKKIGNSAMARYPN	2.39
ITEEKVCMVCKKKIGNSAEARYPN	3.62
ITEEKVCMVCKKKIGNSAFGRYPN	2.05
ITEEKVCMVCKKKIGNSAFTRYPN	2.73
ITEEKVCMVCKKKIGNSAFMRYPN	2.43
ITEEKVCMVCKKKIGNSAFIRYPN	3.49
ITEEKVCMVCKKKIGNSAFNRYPN	2.32

Variant	protein stability index
ITEEKVCMVCKKKIGNSAFCRYPN	2.56
ITEEKVCMVCKKKIGNSAFWRYPN	2.16
ITEEKVCMVCKKKIGNSAFARYPM	2.06
ITEEKVCMVCKKKIGNSAFARYPT	2.88
ITEEKVCMVCKKKIGNSAFARYPF	1.85
ITEEKVCMVCKKKIGNSAFARYPH	2.36
ITEEKVCMVCKKKIGNSAFARYPS	2.18
ITEESVCMVCKKKIGNSAFARYPN	2.53
ITEENVCMVCKKKIGNSAFARYPN	3.66
ITEELVCMVCKKKIGNSAFARYPN	2.06
ITEEHVCMVCKKKIGNSAFARYPN	2.17
ITEEPVCMVCKKKIGNSAFARYPN	2.87
ITEEVVCMVCKKKIGNSAFARYPN	1.98
ITEEYVCMVCKKKIGNSAFARYPN	1.55
ITEERVCMVCKKKIGNSAFARYPN	1.65
ITEEKVCMVCKKKIGNLAFARYPN	2.07
ITEEKVCMVCKKKIGNHAFARYPN	2.54
ITEEKVCMVCKKKIGNMAFARYPN	2.3
ITEEKVCMVCKKKIGNYAFARYPN	2.08
ITEEKVCMVCKKKIGNPAFARYPN	2.47
ITEEKVCMVCKKKIGNVAFARYPN	3.12
ITEEKVCMVCKKKIGNDAFARYPN	2.78
ITEEKVCMVCKKKIGNFAFARYPN	2.18
ITEEKVCMVCKKKIGNGAFARYPN	2.52

Variant	protein stability index
ITEEKVCMVCKKKIGNIAFARYPN	3.04
ITEEKVCMVCKKKIGNSNFARYPN	2.99
ITEEKVCMVCKKKIGNSFFARYPN	2.15
ITEEKVCMVCKKKIGNSHFARYPN	2.73
ITEEKVCMVCKKKIGNSQFARYPN	2.41
ITEEKVCMVCKKKIGNSDFARYPN	3.65
ITEEKVCMVCKKKIGNSWFARYPN	2.08
ITEEKVCMVCKKKIGNSYFARYPN	1.89
ITEEKVCMVCKKKIGNSTFARYPN	2.52
ITEEKVCMVCKKKIGNSSFARYPN	3.04
ITEEKVCMVCKKKIGNSVFARYPN	2
ITEEKVCMVCKKKIGNSGFARYPN	3.02
ITEEKVCMVCKKKIRNSAFARYPN	2.34
ITEEKVCMVCKKKIWNSAFARYPN	2.35
ITEEKVCMVCKKKIANSAFARYPN	1.39
ITEEKVCMVCKKKIQNSAFARYPN	2.99
ITEEKVCMVCKKKISNSAFARYPN	2.54
ITEEKVCMVCKKKIPNSAFARYPN	2.45
ITEEKVCMVCKKKIGQSAFARYPN	3.01
ITEEKVCMVCKKKIGISAFARYPN	2.02
ITEEKVCMVCKKKIGWSAFARYPN	2.08
ITEEKVCMVCKKKIGASAFARYPN	2.42
ITEEKVCMVCKKKIGKSAFARYPN	2.34
ITEEKVCMVCKKKIGGSAFARYPN	3.01

Variant	protein stability index
ITEEKVCMVCKKKIGCSAFARYPN	2.8
ITEEKVCMVCKKKIGHSAFARYPN	2.48
RTEEKVCMVCKKKIGNSAFARYPN	2.13
QTEEKVCMVCKKKIGNSAFARYPN	2.91
FTEEKVCMVCKKKIGNSAFARYPN	2.67
NTEEKVCMVCKKKIGNSAFARYPN	2.78
PTEEKVCMVCKKKIGNSAFARYPN	2.35
TTEEKVCMVCKKKIGNSAFARYPN	2.88
STEEKVCMVCKKKIGNSAFARYPN	2.59
ITEEKVCMVCKVKIGNSAFARYPN	1.74
ITEEKVCMVCKQKIGNSAFARYPN	2.25
ITEEKVCMVCKGKIGNSAFARYPN	1.97
ITEEKVCMVCKMKIGNSAFARYPN	1.64
ITEEKVCMVCKLKIGNSAFARYPN	1.3
ITEEKVCMVCTKKIGNSAFARYPN	2.2
ITEEKVCMVCNKKIGNSAFARYPN	1.81
ITEEKVCMVCYKKIGNSAFARYPN	2.12
ITEEKVCMVCCKKIGNSAFARYPN	1.42
ITEEKVCMVCHKKIGNSAFARYPN	1.74
ITEEKVCMVCAKKIGNSAFARYPN	2.19
ITEEKVCMVCDKKIGNSAFARYPN	3.21
ITEEKVCMVCGKKIGNSAFARYPN	2.58
ITEEKVCMVCKKKIGNSAFAQYPN	2.75
ITEEKVCMVCKKKIGNSAFATYPN	2.55

Variant	protein stability index
ITEEKVCMVCKKKIGNSAFAWYPN	1.94
ITEEKVCMVCKKKIGNSAFALYPN	2.45
ITEEKVCMVCKKKIGNSAFAYYPN	3.13
ITEEKVCMVCKKKIGNSAFASYPN	2.58
ITEEKVCMVCKKKIGNSAFAIYPN	2.93
ITCEKVCMVCKKKIGNSAFARYPN	1.26
ITMEKVCMVCKKKIGNSAFARYPN	1.39
ITNEKVCMVCKKKIGNSAFARYPN	1.84
ITGEKVCMVCKKKIGNSAFARYPN	2.13
ITTEKVCMVCKKKIGNSAFARYPN	1.97
ITSEKVCMVCKKKIGNSAFARYPN	1.97
ITFEKVCMVCKKKIGNSAFARYPN	1.51
ITREKVCMVCKKKIGNSAFARYPN	3.83
ITEEKVCMCCKKKIGNSAFARYPN	2.67
ITEEKVCMLCKKKIGNSAFARYPN	2.83
ITEEKVCMACKKKIGNSAFARYPN	3.05
ITEEKVCMKCKKKIGNSAFARYPN	3.58
ITEEKVCMWCKKKIGNSAFARYPN	2.34
ITEEKVCMRCKKKIGNSAFARYPN	3.61
ITEEKVCMYCKKKIGNSAFARYPN	1.99
ITEEKVCMPCKKKIGNSAFARYPN	3.59
ITEEKVCMMCKKKIGNSAFARYPN	2.69
ITEEKVCMQCKKKIGNSAFARYPN	3.4
ITEEKVCMVCKKKIGNSAFARYTN	2.13

Variant	protein stability index
ITEEKVCMVCKKKIGNSAFARYYN	1.74
ITEEKVCMVCKKKIGNSAFARYRN	2.49
ITEEKVCMVCKKKIGNSAFARYHN	2.04
ITEEKVCMVCKKKIGNSAFARYIN	2.63
ITEEKVCMVCKKKIGNSAFARYSN	2.56
ITEEKACMVCKKKIGNSAFARYPN	1.83
ITEEKPCMVCKKKIGNSAFARYPN	2.88
ITEEKTCMVCKKKIGNSAFARYPN	2.3
ITEEKWCMVCKKKIGNSAFARYPN	1.62
ITEEKNCMVCKKKIGNSAFARYPN	3.42
ITEEKMCMVCKKKIGNSAFARYPN	2.81
ITEEKICMVCKKKIGNSAFARYPN	3.18
ITEEKLCMVCKKKIGNSAFARYPN	2.21
ITEGKVCMVCKKKIGNSAFARYPN	1.5
ITENKVCMVCKKKIGNSAFARYPN	2.12
ITEQKVCMVCKKKIGNSAFARYPN	2.38
ITEPKVCMVCKKKIGNSAFARYPN	2.39
ITEFKVCMVCKKKIGNSAFARYPN	1.77
ITEYKVCMVCKKKIGNSAFARYPN	2.15
ITEMKVCMVCKKKIGNSAFARYPN	2.57
